Results: patent US20180244769A1 (Ablynx, published 2018)
Blank lines part the entries; values can stand above or below the binder they belong to.

What was measured:
[1] = target: human P2X7 (hP2X7) (human) (UniProt Q99572); experiment: cell-based or functional assay
mouse P2X7 (mP2X7) = target: T1, mouse P2X7 (mP2X7) (mus musculus, UniProt Q9Z1M0 1-595); experiment: flow cytometry, HEK cells co-transfected with GFP and mP2X7, detection with Alexa647 anti-mouse IgG
T1 construct: Also used here for endogenous P2X7 on Yac-1 cells, primary mouse lymphocytes and macrophages
T1 chain: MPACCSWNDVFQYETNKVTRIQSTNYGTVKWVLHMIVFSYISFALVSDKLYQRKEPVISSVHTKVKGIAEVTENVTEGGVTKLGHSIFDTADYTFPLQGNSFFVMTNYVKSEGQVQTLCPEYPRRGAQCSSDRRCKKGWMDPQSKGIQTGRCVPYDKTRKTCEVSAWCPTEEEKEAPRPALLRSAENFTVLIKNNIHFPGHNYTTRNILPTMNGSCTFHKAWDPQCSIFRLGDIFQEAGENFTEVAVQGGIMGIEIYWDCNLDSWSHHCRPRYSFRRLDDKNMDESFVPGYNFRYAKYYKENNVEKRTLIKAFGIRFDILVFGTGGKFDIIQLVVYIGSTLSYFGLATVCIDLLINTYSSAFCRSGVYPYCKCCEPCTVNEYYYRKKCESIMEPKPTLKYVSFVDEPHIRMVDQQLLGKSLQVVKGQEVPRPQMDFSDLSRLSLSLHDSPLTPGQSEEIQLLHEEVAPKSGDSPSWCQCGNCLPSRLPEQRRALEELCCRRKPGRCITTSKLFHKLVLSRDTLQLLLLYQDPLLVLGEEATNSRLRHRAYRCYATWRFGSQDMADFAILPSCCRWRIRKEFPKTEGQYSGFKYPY
Source text: (§1) In order to verify the specificity of the selected Nbs and to determine whether the Nbs would bind also to mouse P2X7 or rat P2X7, HEK cells were co-transfected with expression constructs for GFP and either hP2X7, mP2X7, or rP2X7. Twenty four hours post transfection cells were stained with Nb-Fc fusion proteins or mAb L4 before FACS analyses (FIG. 3). […] By comparison, previously described Nbs 13A7 and 14D5 (WO 2010/070145) recognize mP2X7, but not hP2X7 or rP2X7, mAb L4 recognizes hP2X7 and rP2X7, but not mP2X7.

rat P2X7 (rP2X7) = target: T2, rat P2X7 (rP2X7) (Rattus norvegicus, UniProt Q64663 1-595); experiment: flow cytometry, HEK cells co-transfected with GFP and rP2X7, detection with Alexa647 anti-mouse IgG
T2 sequence: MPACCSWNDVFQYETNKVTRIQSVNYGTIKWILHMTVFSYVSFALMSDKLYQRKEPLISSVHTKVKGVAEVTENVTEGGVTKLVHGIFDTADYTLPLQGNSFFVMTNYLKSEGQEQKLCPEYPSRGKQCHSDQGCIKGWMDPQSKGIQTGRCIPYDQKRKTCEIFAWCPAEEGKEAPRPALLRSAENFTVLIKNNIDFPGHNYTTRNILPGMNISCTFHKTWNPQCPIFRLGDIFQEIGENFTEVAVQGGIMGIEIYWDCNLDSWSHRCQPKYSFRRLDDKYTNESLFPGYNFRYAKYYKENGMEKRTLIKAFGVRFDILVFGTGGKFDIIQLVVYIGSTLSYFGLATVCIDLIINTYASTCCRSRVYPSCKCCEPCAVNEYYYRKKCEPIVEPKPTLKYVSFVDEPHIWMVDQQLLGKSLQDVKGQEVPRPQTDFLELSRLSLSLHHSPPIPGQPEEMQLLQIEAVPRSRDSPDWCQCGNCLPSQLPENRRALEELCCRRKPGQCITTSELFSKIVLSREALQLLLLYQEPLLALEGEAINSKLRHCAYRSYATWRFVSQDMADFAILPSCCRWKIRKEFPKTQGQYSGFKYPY
Source text: as §1

[2] = target: human P2X7 (hP2X7) (human) (UniProt Q99572); experiment: flow cytometry of whole blood of one donor, gate on lymphocytes, Alexa647 conjugate with anti-CD4; unblocked = pre-incubated with control 1067-Fc
[3] = target: human P2X7 (hP2X7) (human) (UniProt Q99572); experiment: flow cytometry, HEK cells co-transfected with GFP and hP2X7, bound antibody detected with Alexa647 anti-mouse IgG; other quadrants: UL 0.8, LL 12, LR 15
[4] = target: human P2X7 (hP2X7) (human) (UniProt Q99572); experiment: flow cytometry of whole blood of one donor, gate on lymphocytes, Alexa647 conjugate with anti-CD4; unblocked = pre-incubated with control 1067-Fc; lower quadrants 24 and 19
[5] = target: human P2X7 (hP2X7) (human) (UniProt Q99572); experiment: flow cytometry of whole blood of one donor, gate on lymphocytes, Alexa647 conjugate with anti-CD4; blocked = pre-incubated with excess unlabelled Nb-Fc (legend: 3 ug each of 1c113-Fc and 3c23-Fc); lower quadrants 44 and 54
[6] = target: human P2X7 (hP2X7) (human) (UniProt Q99572); experiment: flow cytometry, HEK cells co-transfected with GFP and hP2X7, bound antibody detected with Alexa647 anti-mouse IgG; other quadrants: UL 71, LL 27, LR 0.5
[7] = target: human P2X7 (hP2X7) (human) (UniProt Q99572); experiment: flow cytometry, HEK cells co-transfected with GFP and hP2X7, bound antibody detected with Alexa647 anti-mouse IgG; other quadrants: UL 72, LL 26, LR 0.5
[8] = target: human P2X7 (hP2X7) (human) (UniProt Q99572); experiment: flow cytometry, HEK cells co-transfected with GFP and hP2X7, bound antibody detected with Alexa647 anti-mouse IgG; other quadrants: UL 1.5, LL 16, LR 11
[9] = target: human P2X7 (hP2X7) (human) (UniProt Q99572); experiment: flow cytometry, HEK cells co-transfected with GFP and hP2X7, bound antibody detected with Alexa647 anti-mouse IgG; other quadrants: UL 0.7, LL 12, LR 15
[10] = target: human P2X7 (hP2X7) (human) (UniProt Q99572); experiment: flow cytometry of whole blood of one donor, gate on lymphocytes, Alexa647 conjugate with anti-CD4; unblocked = pre-incubated with control 1067-Fc; lower quadrants 23 and 19
[11] = target: human P2X7 (hP2X7) (human) (UniProt Q99572); experiment: flow cytometry of whole blood of one donor, gate on lymphocytes, Alexa647 conjugate with anti-CD4; blocked = pre-incubated with excess unlabelled Nb-Fc (legend: 3 ug each of 1c113-Fc and 3c23-Fc); lower quadrants 44 and 55

human P2X7 (hP2X7) (human), sequence (Q99572 whole entry): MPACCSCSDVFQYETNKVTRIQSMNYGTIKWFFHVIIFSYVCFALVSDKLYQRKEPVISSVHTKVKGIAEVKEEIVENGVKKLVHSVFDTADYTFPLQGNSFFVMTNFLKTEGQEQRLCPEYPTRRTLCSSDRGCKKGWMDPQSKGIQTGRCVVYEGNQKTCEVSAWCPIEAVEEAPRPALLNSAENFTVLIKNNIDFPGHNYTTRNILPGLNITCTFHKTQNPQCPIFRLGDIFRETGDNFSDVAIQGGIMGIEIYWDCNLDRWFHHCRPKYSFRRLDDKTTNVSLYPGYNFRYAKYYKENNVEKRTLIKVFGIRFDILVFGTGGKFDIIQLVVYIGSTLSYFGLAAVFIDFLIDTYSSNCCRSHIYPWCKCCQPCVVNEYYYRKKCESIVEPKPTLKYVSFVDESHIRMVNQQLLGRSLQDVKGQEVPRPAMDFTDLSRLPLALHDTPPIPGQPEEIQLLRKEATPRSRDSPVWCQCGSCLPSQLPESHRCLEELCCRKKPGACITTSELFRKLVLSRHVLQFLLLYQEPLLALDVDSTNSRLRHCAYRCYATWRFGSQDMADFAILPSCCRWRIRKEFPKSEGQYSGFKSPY

IC50 [nM], blockade of L-selectin (CD62L) shedding in transfected HEK cells, 4 mM ATP [1]: 100 nM
IC50 [ng/ml], blockade of L-selectin (CD62L) shedding in transfected HEK cells, 4 mM ATP [1]: 1500 ng/mL
B1: Nb 1c81 (monovalent) (VHH)
VHH: EVQLVESGGKLVQAGGSLRLSCSASGRTFSFSTSTMGWFRQAPGKELEFVAAIDWSDFNTYYADSVKGRFTISRHNPRNSVYLQLNSLKPEDTAVYYCAAHSETRGGTRYFDRPSLYNYWGQGTQVTVSS

IC50 [nM], blockade of L-selectin (CD62L) shedding in transfected HEK cells, 4 mM ATP [1]: > 35 nM
IC50 [ng/ml], blockade of L-selectin (CD62L) shedding in transfected HEK cells, 4 mM ATP [1]: > 2800 ng/mL
binding result (mouse P2X7 (mP2X7)): no binding
binding result (rat P2X7 (rP2X7)): no binding
MFI (AF647) of CD4+ lymphocytes, unblocked [2]: 17
MFI (AF647) of CD4- lymphocytes, unblocked [2]: 14
% of cells in the GFP+ / anti-mIgG A647+ quadrant (upper right) [3]: 72%
% of lymphocytes in the CD4+ / AF647+ quadrant (upper right), unblocked [4]: 35%
% of lymphocytes in the CD4- / AF647+ quadrant (upper left), unblocked [4]: 22%
% of lymphocytes in the CD4+ / AF647+ quadrant (upper right), blocked [5]: 0.7%
% of lymphocytes in the CD4- / AF647+ quadrant (upper left), blocked [5]: 0.8%
B2: 1c113-Fc (pME 1c113-mIgG1Fc_LSF) (Fc fusion)
chain: DYKDDDDKRSMAEVQLVESGGGLVQPGGSLTLSCAASGIAFNYYSMSWHRQAPGKQRTLVADISPGGHTEYEDSVKGRFTISRDNFKNTMTLHMNSLKPEDTAVYFCAARLRFEVSSNYWGQGTQVTVSSLEPRDCGCKPCICTVPEVSSEVSSVFIFPPKPKDVLLISLFPKVTCVVVDISKDDPEVQFSWFVDDVEVHTAQTQPREEQFNSTFRSVSELPIMHQDWLNGKEFKCRVNSAAFPAPIEKTISKTKGRPKAPQVYTIPPPKEQMAKDKVSLTCMITDFFPEDITVEWQWNGQPAENYKNTQPIMDTDGSYFVYSKLNVQKSNWEAGNTFTCSVLHEGLHNHHTEKSLSHSPGKGK
notes: Used unconjugated or conjugated to Alexa647; also called WD1c113Fc; Nb 1c113-Fc

IC50 [nM], blockade of L-selectin (CD62L) shedding in transfected HEK cells, 4 mM ATP [1]: > 185 nM
IC50 [ng/ml], blockade of L-selectin (CD62L) shedding in transfected HEK cells, 4 mM ATP [1]: > 2800 ng/mL
B3: Nb 1c113 (monovalent) (VHH)
VHH: EVQLVESGGGLVQPGGSLTLSCAASGIAFNYYSMSWHRQAPGKQRTLVADISPGGHTEYEDSVKGRFTISRDNFKNTMTLHMNSLKPEDTAVYFCAARLRFEVSSNYWGQGTQVTVSS

binding result (rat P2X7 (rP2X7)): no binding
% of cells in the GFP+ / anti-mIgG A647+ quadrant (upper right) [6]: 1.2%
B4: 13A7-Fc (Nb-Fc fusion protein of Nb 13A7) (Fc fusion)
chain: EVQLVESGGGLVQPGESLRLSCTASRFMLDYYDIGWFRQAPGKEREGVSCRFTNDGSTAYADSVKGRFTISRDIVKHTVYLQMNSLQPEDTAVYYCAAGPLTKRRQCVPGDFSMDFWGEGTLVTVSS
notes: Nb-Fc fusion; also called fluorochrome-conjugated Nb 13A7; not shown: Fc part

binding result (rat P2X7 (rP2X7)): no binding
% of cells in the GFP+ / anti-mIgG A647+ quadrant (upper right) [7]: 1.2%
B5: 14D5-Fc (Nb-Fc fusion protein of Nb 14D5) (Fc fusion)
chain: KVQLVESGGGLVQAGGSLRLSCAASGSPISSYAMGWYRQAPGKPRELVARIYTGGTAWYEDSVKGRFTISRDNAQNTVYLQMNSLKSEDTAVYYCHGRVRYDYWGQGTQVTVSS
notes: Nb-Fc fusion; not shown: Fc part

IC50 [nM], blockade of L-selectin (CD62L) shedding in transfected HEK cells, 4 mM ATP [1]: 5 nM
IC50 [ng/ml], blockade of L-selectin (CD62L) shedding in transfected HEK cells, 4 mM ATP [1]: 400 ng/mL
fold enhanced potency to block activation of P2X7, Nb-Fc fusion protein against its monovalent counterpart [1]: 5 to 20 fold
molar inhibition potency relative to monovalent 1c81 (CD62L shedding) [1]: 20 fold
% of cells in the GFP+ / anti-mIgG A647+ quadrant (upper right) [8]: 71%
B6: 1c81-Fc (Nb 1c81 fused to the Fc-domain of mouse IgG1) (Fc fusion, not shown: small tags and cut ends; a dimerising Fc or GST)
chain: EVQLVESGGKLVQAGGSLRLSCSASGRTFSFSTSTMGWFRQAPGKELEFVAAIDWSDFNTYYADSVKGRFTISRHNPRNSVYLQLNSLKPEDTAVYYCAAHSETRGGTRYFDRPSLYNYWGQGTQVTVSSA

IC50 [nM], blockade of L-selectin (CD62L) shedding in transfected HEK cells, 4 mM ATP [1]: 0.6 nM
IC50 [ng/ml], blockade of L-selectin (CD62L) shedding in transfected HEK cells, 4 mM ATP [1]: 50 ng/mL
fold enhanced potency to block activation of P2X7, Nb-Fc fusion protein against its monovalent counterpart [1]: 5 to 20 fold
molar inhibition potency relative to monovalent 3c23 (CD62L shedding) [1]: 4 fold
binding result (mouse P2X7 (mP2X7)): no binding
binding result (rat P2X7 (rP2X7)): no binding
MFI (AF647) of CD4+ lymphocytes, unblocked [2]: 17
MFI (AF647) of CD4- lymphocytes, unblocked [2]: 14
% of cells in the GFP+ / anti-mIgG A647+ quadrant (upper right) [9]: 72%
% of lymphocytes in the CD4+ / AF647+ quadrant (upper right), unblocked [10]: 35%
% of lymphocytes in the CD4- / AF647+ quadrant (upper left), unblocked [10]: 24%
% of lymphocytes in the CD4+ / AF647+ quadrant (upper right), blocked [11]: 0.4%
% of lymphocytes in the CD4- / AF647+ quadrant (upper left), blocked [11]: 0.7%
B7: 3c23-Fc (Nb 3c23 fused to the Fc-domain of mouse IgG1) (Fc fusion)
chain: EVQLVESGGGLVQAGGSLRLSCAASGRTFRHYAMGWFRQAPGKEREFVAAISSYGSTDYGDSVKGRFTISRDDAKNTVPLQMNSLKPEDTAVYYCAAADETLGAVPNFRLHEKYEYEYWGQGTQVTVSSA
notes: Bivalent N-terminally FLAG-tagged Nb-Fc fusion protein made in HEK cells; Used unconjugated or conjugated to Alexa647; also called WD3c23Fc; Nb 3c23-Fc; not shown: N-terminal FLAG tag; Fc-domain of mouse IgG1

IC50 [nM], blockade of L-selectin (CD62L) shedding in transfected HEK cells, 4 mM ATP [1]: 2.7 nM
IC50 [ng/ml], blockade of L-selectin (CD62L) shedding in transfected HEK cells, 4 mM ATP [1]: 40 ng/mL
B8: Nb 3c23 (monovalent) (VHH)
VHH: EVQLVESGGGLVQAGGSLRLSCAASGRTFRHYAMGWFRQAPGKEREFVAAISSYGSTDYGDSVKGRFTISRDDAKNTVPLQMNSLKPEDTAVYYCAAADETLGAVPNFRLHEKYEYEYWGQGTQVTVSS
